The supplement of paper PMC9112550, “Optimization of the antimicrobial peptide Bac7 by deep mutational scanning” (BMC Biology, 2022)

Tested on: Escherichia coli TOP10
Assay: shrunken log2 fold change of peptide-encoding DNA abundance (4.5 h post-induction vs induction); higher = less antimicrobial activity (less host growth inhibition)
Conditions: time post-induction: 4.5 h; library: site-saturation at positions 5, 18, 19, 20
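Also: peptides expressed intracellularly from a pBAD plasmid library in pooled LB shake-flask culture, induced with 0.3% L-arabinose, DNA abundance read by NGS, three biological replicates, DESeq2 with apeglm shrinkage.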

| Sequence | shrunken log2 fold change |
| --- | --- |
| RRIRMRPPRLPRPRPRPTDAPRP | 0.741 |
| RRIRMRPPRLPRPRPRPTESPRP | 0.0389 |
| RRIRMRPPRLPRPRPRPTEWPRP | 0.555 |
| RRIRMRPPRLPRPRPRPTFDPRP | 0.558 |
| RRIRMRPPRLPRPRPRPTICPRP | 0.0136 |
| RRIRMRPPRLPRPRPRPTKAPRP | 0.26 |
| RRIRMRPPRLPRPRPRPTKCPRP | 0.331 |
| RRIRMRPPRLPRPRPRPTKVPRP | 0.126 |
| RRIRMRPPRLPRPRPRPTLHPRP | 0.294 |
| RRIRMRPPRLPRPRPRPTLIPRP | 0.00162 |
| RRIRMRPPRLPRPRPRPTNHPRP | 0.0232 |
| RRIRMRPPRLPRPRPRPTQKPRP | 0.168 |
| RRIRMRPPRLPRPRPRPTQRPRP | 0.968 |
| RRIRMRPPRLPRPRPRPTSEPRP | 0.511 |
| RRIRMRPPRLPRPRPRPTTHPRP | 0.295 |
| RRIRMRPPRLPRPRPRPTTKPRP | 0.268 |
| RRIRMRPPRLPRPRPRPTVHPRP | 0.102 |
| RRIRMRPPRLPRPRPRPTVKPRP | -0.0616 |
| RRIRMRPPRLPRPRPRPTVRPRP | 0.216 |
| RRIRMRPPRLPRPRPRPTWMPRP | 0.25 |
| RRIRMRPPRLPRPRPRPTYCPRP | -0.271 |
| RRIRMRPPRLPRPRPRPVALPRP | 0.711 |
| RRIRMRPPRLPRPRPRPVCNPRP | -0.314 |
| RRIRMRPPRLPRPRPRPVCPPRP | 0.0129 |
| RRIRMRPPRLPRPRPRPVFGPRP | 0.411 |

| Sequence | shrunken log2 fold change |
| --- | --- |
| RRIRMRPPRLPRPRPRPVGNPRP | 0.0176 |
| RRIRMRPPRLPRPRPRPVGVPRP | 0.806 |
| RRIRMRPPRLPRPRPRPVHEPRP | -0.232 |
| RRIRMRPPRLPRPRPRPVHVPRP | -0.0337 |
| RRIRMRPPRLPRPRPRPVILPRP | -0.826 |
| RRIRMRPPRLPRPRPRPVKLPRP | -0.0873 |
| RRIRMRPPRLPRPRPRPVKTPRP | 0.0113 |
| RRIRMRPPRLPRPRPRPVMLPRP | -0.28 |
| RRIRMRPPRLPRPRPRPVMPPRP | -0.0271 |
| RRIRMRPPRLPRPRPRPVMSPRP | 0.134 |
| RRIRMRPPRLPRPRPRPVNHPRP | -0.327 |
| RRIRMRPPRLPRPRPRPVNPPRP | 0.00934 |
| RRIRMRPPRLPRPRPRPVPRPRP | 0.606 |
| RRIRMRPPRLPRPRPRPVQNPRP | 0.0136 |
| RRIRMRPPRLPRPRPRPVRKPRP | 0.136 |
| RRIRMRPPRLPRPRPRPVRWPRP | 1.38 |
| RRIRMRPPRLPRPRPRPVSFPRP | 0.000809 |
| RRIRMRPPRLPRPRPRPVVRPRP | 0.0837 |
| RRIRMRPPRLPRPRPRPVVWPRP | 1.57 |
| RRIRMRPPRLPRPRPRPVWGPRP | 0.185 |
| RRIRMRPPRLPRPRPRPWAAPRP | 0.502 |
| RRIRMRPPRLPRPRPRPWDQPRP | 0.0532 |
| RRIRMRPPRLPRPRPRPWEDPRP | -0.0122 |
| RRIRMRPPRLPRPRPRPWEEPRP | 0.317 |
| RRIRMRPPRLPRPRPRPWFPPRP | -0.0494 |

| Sequence | shrunken log2 fold change |
| --- | --- |
| RRIRMRPPRLPRPRPRPWGLPRP | 0.0219 |
| RRIRMRPPRLPRPRPRPWGTPRP | 0.254 |
| RRIRMRPPRLPRPRPRPWGVPRP | 0.187 |
| RRIRMRPPRLPRPRPRPWGWPRP | 1.08 |
| RRIRMRPPRLPRPRPRPWIEPRP | -0.092 |
| RRIRMRPPRLPRPRPRPWKDPRP | -0.0578 |
| RRIRMRPPRLPRPRPRPWKEPRP | 0.0155 |
| RRIRMRPPRLPRPRPRPWPQPRP | 0.729 |
| RRIRMRPPRLPRPRPRPWQRPRP | 0.179 |
| RRIRMRPPRLPRPRPRPWRKPRP | 0.506 |
| RRIRMRPPRLPRPRPRPWRWPRP | 0.205 |
| RRIRMRPPRLPRPRPRPWSAPRP | 0.149 |
| RRIRMRPPRLPRPRPRPWTCPRP | -0.0398 |
| RRIRMRPPRLPRPRPRPWWIPRP | -0.442 |
| RRIRMRPPRLPRPRPRPYAWPRP | -0.107 |
| RRIRMRPPRLPRPRPRPYDSPRP | 0.00275 |
| RRIRMRPPRLPRPRPRPYFPPRP | -0.213 |
| RRIRMRPPRLPRPRPRPYGRPRP | 0.0596 |
| RRIRMRPPRLPRPRPRPYIDPRP | -0.227 |
| RRIRMRPPRLPRPRPRPYKIPRP | -0.544 |
| RRIRMRPPRLPRPRPRPYLRPRP | 0.0522 |
| RRIRMRPPRLPRPRPRPYMQPRP | -0.338 |
| RRIRMRPPRLPRPRPRPYNFPRP | -0.363 |
| RRIRMRPPRLPRPRPRPYPHPRP | 0.00442 |
| RRIRMRPPRLPRPRPRPYQAPRP | 2.21 |

| Sequence | shrunken log2 fold change |
| --- | --- |
| RRIRMRPPRLPRPRPRPYQFPRP | -0.125 |
| RRIRMRPPRLPRPRPRPYRNPRP | -0.18 |
| RRIRMRPPRLPRPRPRPYTLPRP | -0.274 |
| RRIRMRPPRLPRPRPRPYTQPRP | -0.149 |
| RRIRMRPPRLPRPRPRPYVCPRP | -0.00867 |
| RRIRMRPPRLPRPRPRPYVEPRP | -0.133 |
| RRIRMRPPRLPRPRPRPYVWPRP | -0.0956 |
| RRIRMRPPRLPRPRPRPYWGPRP | -0.0296 |
| RRIRMRPPRLPRPRPRPYYWPRP | -0.123 |
| RRIRNRPPRLPRPRPRPAATPRP | 0.285 |
| RRIRNRPPRLPRPRPRPACAPRP | 0.3 |
| RRIRNRPPRLPRPRPRPACIPRP | 0.0248 |
| RRIRNRPPRLPRPRPRPACSPRP | 0.0895 |
| RRIRNRPPRLPRPRPRPADVPRP | -0.289 |
| RRIRNRPPRLPRPRPRPADWPRP | 0.044 |
| RRIRNRPPRLPRPRPRPAFSPRP | -0.183 |
| RRIRNRPPRLPRPRPRPAFTPRP | -0.176 |
| RRIRNRPPRLPRPRPRPAFVPRP | 0.154 |
| RRIRNRPPRLPRPRPRPAFYPRP | -0.065 |
| RRIRNRPPRLPRPRPRPAGWPRP | 0.558 |
| RRIRNRPPRLPRPRPRPAHMPRP | -0.167 |
| RRIRNRPPRLPRPRPRPAICPRP | -0.0274 |
| RRIRNRPPRLPRPRPRPAIVPRP | -0.0426 |
| RRIRNRPPRLPRPRPRPAKCPRP | -0.384 |
| RRIRNRPPRLPRPRPRPAKFPRP | -0.179 |

| Sequence | shrunken log2 fold change |
| --- | --- |
| RRIRNRPPRLPRPRPRPAMKPRP | 0.284 |
| RRIRNRPPRLPRPRPRPAPEPRP | 0.948 |
| RRIRNRPPRLPRPRPRPAPWPRP | 0.266 |
| RRIRNRPPRLPRPRPRPAQSPRP | 0.0508 |
| RRIRNRPPRLPRPRPRPASEPRP | -0.0216 |
| RRIRNRPPRLPRPRPRPASPPRP | 0.154 |
| RRIRNRPPRLPRPRPRPASTPRP | -0.269 |
| RRIRNRPPRLPRPRPRPCAQPRP | 0.127 |
| RRIRNRPPRLPRPRPRPCCGPRP | -0.148 |
| RRIRNRPPRLPRPRPRPCCSPRP | -0.0427 |
| RRIRNRPPRLPRPRPRPCCVPRP | -0.667 |
| RRIRNRPPRLPRPRPRPCDMPRP | 0.0184 |
| RRIRNRPPRLPRPRPRPCDYPRP | -0.00992 |
| RRIRNRPPRLPRPRPRPCEGPRP | 0.111 |
| RRIRNRPPRLPRPRPRPCEKPRP | -0.0478 |
| RRIRNRPPRLPRPRPRPCFIPRP | -0.86 |
| RRIRNRPPRLPRPRPRPCFKPRP | -0.0138 |
| RRIRNRPPRLPRPRPRPCFMPRP | -0.742 |
| RRIRNRPPRLPRPRPRPCFSPRP | -0.378 |
| RRIRNRPPRLPRPRPRPCFWPRP | -0.0333 |
| RRIRNRPPRLPRPRPRPCHFPRP | -0.166 |
| RRIRNRPPRLPRPRPRPCIMPRP | -0.135 |
| RRIRNRPPRLPRPRPRPCLCPRP | -0.275 |
| RRIRNRPPRLPRPRPRPCLYPRP | 0.0767 |
| RRIRNRPPRLPRPRPRPCNHPRP | -0.298 |

| Sequence | shrunken log2 fold change |
| --- | --- |
| RRIRNRPPRLPRPRPRPCNVPRP | -0.00963 |
| RRIRNRPPRLPRPRPRPCPYPRP | -0.0128 |
| RRIRNRPPRLPRPRPRPCRLPRP | -0.0199 |
| RRIRNRPPRLPRPRPRPCRYPRP | -0.148 |
| RRIRNRPPRLPRPRPRPCSAPRP | -0.292 |
| RRIRNRPPRLPRPRPRPCSGPRP | -0.242 |
| RRIRNRPPRLPRPRPRPCSLPRP | -0.262 |
| RRIRNRPPRLPRPRPRPCVEPRP | -0.209 |
| RRIRNRPPRLPRPRPRPCWFPRP | -0.00192 |
| RRIRNRPPRLPRPRPRPCWMPRP | -0.18 |
| RRIRNRPPRLPRPRPRPCWQPRP | -0.0118 |
| RRIRNRPPRLPRPRPRPDANPRP | -0.318 |
| RRIRNRPPRLPRPRPRPDCPPRP | -0.031 |
| RRIRNRPPRLPRPRPRPDCYPRP | -0.871 |
| RRIRNRPPRLPRPRPRPDERPRP | 0.0408 |
| RRIRNRPPRLPRPRPRPDEVPRP | -0.00973 |
| RRIRNRPPRLPRPRPRPDFAPRP | -0.0617 |
| RRIRNRPPRLPRPRPRPDFKPRP | -0.0167 |
| RRIRNRPPRLPRPRPRPDHWPRP | 0.0703 |
| RRIRNRPPRLPRPRPRPDKKPRP | -0.0263 |
| RRIRNRPPRLPRPRPRPDKNPRP | -0.226 |
| RRIRNRPPRLPRPRPRPDLAPRP | 0.02 |
| RRIRNRPPRLPRPRPRPDLVPRP | -0.15 |
| RRIRNRPPRLPRPRPRPDMGPRP | -0.00968 |
| RRIRNRPPRLPRPRPRPDMLPRP | -0.116 |
